Source: patent US20250163162A1

Key:
[1] = target: T1, IL10Rα and IL2Rγ on human primary cells (CD8 T cells, CD4 T cells, monocytes) (human) (UniProt Q13651); test: cell-based or functional assay
T1 sequence (looked up) 1: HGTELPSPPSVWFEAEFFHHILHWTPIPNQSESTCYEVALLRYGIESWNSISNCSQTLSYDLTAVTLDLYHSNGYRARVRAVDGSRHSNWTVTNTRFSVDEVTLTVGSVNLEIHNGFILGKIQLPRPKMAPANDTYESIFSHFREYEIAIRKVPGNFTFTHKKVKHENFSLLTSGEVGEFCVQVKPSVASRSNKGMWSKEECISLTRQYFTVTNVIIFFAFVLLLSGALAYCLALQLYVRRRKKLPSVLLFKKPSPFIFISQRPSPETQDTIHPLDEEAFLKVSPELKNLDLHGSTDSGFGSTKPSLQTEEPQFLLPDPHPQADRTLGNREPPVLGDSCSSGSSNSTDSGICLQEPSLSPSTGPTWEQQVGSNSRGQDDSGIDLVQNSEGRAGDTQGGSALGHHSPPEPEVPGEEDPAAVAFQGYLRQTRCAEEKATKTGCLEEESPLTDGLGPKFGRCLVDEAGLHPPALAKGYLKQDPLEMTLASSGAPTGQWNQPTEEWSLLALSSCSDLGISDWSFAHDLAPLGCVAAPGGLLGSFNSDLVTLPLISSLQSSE
T1 sequence (looked up) 2: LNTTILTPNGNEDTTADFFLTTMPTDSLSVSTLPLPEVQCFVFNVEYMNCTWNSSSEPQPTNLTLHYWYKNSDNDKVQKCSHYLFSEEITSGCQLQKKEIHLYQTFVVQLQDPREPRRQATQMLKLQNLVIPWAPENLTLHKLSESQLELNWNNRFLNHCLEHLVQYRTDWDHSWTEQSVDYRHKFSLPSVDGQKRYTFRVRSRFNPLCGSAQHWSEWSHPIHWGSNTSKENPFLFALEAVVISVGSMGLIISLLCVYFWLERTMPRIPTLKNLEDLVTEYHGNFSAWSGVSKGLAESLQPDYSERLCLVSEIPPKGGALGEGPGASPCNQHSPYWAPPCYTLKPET

[2] = target: T2, IL10Rα/IL2Rγ receptor (human) (UniProt Q13651); test: cell-based or functional assay
T2 sequence (looked up) 1: T1 sequence (looked up) 1
T2 sequence (looked up) 2: T1 sequence (looked up) 2

B1: hIL10Ra_VHH14-hIL2Rg_VHH19, linker GGGS, tag Fc (Fc fusion, not shown: a dimerising Fc or GST)
chain: QVQLQESGGGSVQAGGSLRLSCGASGYTYSSYCMGWFRQVPGKEREGVAVIDSDGSTSYADSVKGRFTISKDNGKNTLYLQMNSLKPEDTAMYYCAADLGHYRPPCGVLYLGMDYWGKGTQVTVSSGGGSQVQLQESGGGSVQAGGSLRLSCTASGFTFDDREMNWYRQAPGNECELVSTISSDGSTYYADSVKGRFTISQDNAKNTVYLQMDSVKPEDTAVYYCAADFMIAIQAPGAGCWGQGTQVTVSS
[1]
  pSTAT3 (MFI) in CD4 T cells at 0.0001 µM: 12600 MFI
  pSTAT3 (MFI) in CD4 T cells at 0.001 µM: 12600 MFI
  pSTAT3 (MFI) in CD4 T cells at 0.01 µM: 12500 MFI
  pSTAT3 (MFI) in CD4 T cells at 0.1 µM: 11300 MFI
  pSTAT3 (MFI) in CD4 T cells at 1 µM: 13600 MFI
  pSTAT3 (MFI) in CD4 T cells at 10 µM: 14800 MFI
  pSTAT3 (MFI) in CD4 T cells at 100 µM: 16000 MFI
  pSTAT3 (MFI) in CD8 T cells at 0.0001 µM: 7540 MFI
  pSTAT3 (MFI) in CD8 T cells at 0.001 µM: 7890 MFI
  pSTAT3 (MFI) in CD8 T cells at 0.01 µM: 7800 MFI
  pSTAT3 (MFI) in CD8 T cells at 0.1 µM: 7330 MFI
  pSTAT3 (MFI) in CD8 T cells at 1 µM: 9320 MFI
  pSTAT3 (MFI) in CD8 T cells at 10 µM: 12300 MFI
  pSTAT3 (MFI) in CD8 T cells at 100 µM: 13200 MFI
  pSTAT3 (MFI) in monocytes at 0.0001 µM: 4370 MFI
  pSTAT3 (MFI) in monocytes at 0.001 µM: 4740 MFI
  pSTAT3 (MFI) in monocytes at 0.01 µM: 4420 MFI
  pSTAT3 (MFI) in monocytes at 0.1 µM: 4810 MFI
  pSTAT3 (MFI) in monocytes at 1 µM: 5690 MFI
  pSTAT3 (MFI) in monocytes at 10 µM: 6690 MFI
  pSTAT3 (MFI) in monocytes at 100 µM: 6030 MFI

B2: hIL10Ra_VHH14 - hIL2Rg_VHH19, linker GGGSGGGS, tag his (bispecific antibody, not shown: small tags and cut ends)
chain: QVQLQESGGGSVQAGGSLRLSCGASGYTYSSYCMGWFRQVPGKEREGVAVIDSDGSTSYADSVKGRFTISKDNGKNTLYLQMNSLKPEDTAMYYCAADLGHYRPPCGVLYLGMDYWGKGTQVTVSSGGGSGGGSQVQLQESGGGSVQAGGSLRLSCTASGFTFDDREMNWYRQAPGNECELVSTISSDGSTYYADSVKGRFTISQDNAKNTVYLQMDSVKPEDTAVYYCAADFMIAIQAPGAGCWGQGTQVTVSS
[2]
  Granzyme A secretion, CD8 T cells, at 0 µM: 25200 pg/mL
  Granzyme A secretion, CD8 T cells, at 0.0001 µM: 19700 pg/mL
  Granzyme A secretion, CD8 T cells, at 0.001 µM: 22300 pg/mL
  Granzyme A secretion, CD8 T cells, at 0.01 µM: 22700 pg/mL
  Granzyme A secretion, CD8 T cells, at 0.1 µM: 26000 pg/mL
  Granzyme A secretion, CD8 T cells, at 1 µM: 30100 pg/mL
  Granzyme A secretion, CD8 T cells, at 10 µM: 29300 pg/mL
  Granzyme A secretion, CD8 T cells, at 100 µM: 24800 pg/mL
  Granzyme B secretion, CD8 T cells, at 0 µM: 77700 pg/mL
  Granzyme B secretion, CD8 T cells, at 0.0001 µM: 52600 pg/mL
  Granzyme B secretion, CD8 T cells, at 0.001 µM: 45500 pg/mL
  Granzyme B secretion, CD8 T cells, at 0.01 µM: 47300 pg/mL
  Granzyme B secretion, CD8 T cells, at 0.1 µM: 62200 pg/mL
  Granzyme B secretion, CD8 T cells, at 1 µM: 80500 pg/mL
  Granzyme B secretion, CD8 T cells, at 10 µM: 83500 pg/mL
  Granzyme B secretion, CD8 T cells, at 100 µM: 78100 pg/mL
  IFNγ secretion, CD8 T cells, at 0 µM: 122000 pg/mL
  IFNγ secretion, CD8 T cells, at 0.0001 µM: 95500 pg/mL
  IFNγ secretion, CD8 T cells, at 0.001 µM: 108000 pg/mL
  IFNγ secretion, CD8 T cells, at 0.01 µM: 102000 pg/mL
  IFNγ secretion, CD8 T cells, at 0.1 µM: 122000 pg/mL
  IFNγ secretion, CD8 T cells, at 1 µM: 142000 pg/mL
  IFNγ secretion, CD8 T cells, at 10 µM: 143000 pg/mL
  IFNγ secretion, CD8 T cells, at 100 µM: 120000 pg/mL
  IL-1β secretion, LPS treated monocytes, at 0 µM: 6240 pg/mL
  IL-1β secretion, LPS treated monocytes, at 0 µM (LPS only): 6880 pg/mL
  IL-1β secretion, LPS treated monocytes, at 0.0001 µM: 5950 pg/mL
  IL-1β secretion, LPS treated monocytes, at 0.001 µM: 6200 pg/mL
  IL-1β secretion, LPS treated monocytes, at 0.01 µM: 4960 pg/mL
  IL-1β secretion, LPS treated monocytes, at 0.1 µM: 5590 pg/mL
  IL-1β secretion, LPS treated monocytes, at 1 µM: 5670 pg/mL
  IL-1β secretion, LPS treated monocytes, at 10 µM: 6020 pg/mL
  IL-1β secretion, LPS treated monocytes, at 100 µM: 6840 pg/mL
  IL-9 secretion, CD8 T cells, at 0 µM: 1350 pg/mL
  IL-9 secretion, CD8 T cells, at 0.0001 µM: 988 pg/mL
  IL-9 secretion, CD8 T cells, at 0.001 µM: 1050 pg/mL
  IL-9 secretion, CD8 T cells, at 0.01 µM: 1010 pg/mL
  IL-9 secretion, CD8 T cells, at 0.1 µM: 1300 pg/mL
  IL-9 secretion, CD8 T cells, at 1 µM: 1380 pg/mL
  IL-9 secretion, CD8 T cells, at 10 µM: 1880 pg/mL
  IL-9 secretion, CD8 T cells, at 100 µM: 1700 pg/mL

B3: hIL10Ra_VHH14 - hIL2Rg_VHH19, linker …, tag his (bispecific antibody, not shown: small tags and cut ends)
chain: QVQLQESGGGSVQAGGSLRLSCGASGYTYSSYCMGWFRQVPGKEREGVAVIDSDGSTSYADSVKGRFTISKDNGKNTLYLQMNSLKPEDTAMYYCAADLGHYRPPCGVLYLGMDYWGKGTQVTVSSGGSGGSGGSGQVQLQESGGGSVQAGGSLRLSCTASGFTFDDREMNWYRQAPGNECELVSTISSDGSTYYADSVKGRFTISQDNAKNTVYLQMDSVKPEDTAVYYCAADFMIAIQAPGAGCWGQGTQVTVSS
[2]
  Granzyme A secretion, CD8 T cells, at 0 µM: 25200 pg/mL
  Granzyme A secretion, CD8 T cells, at 0.0001 µM: 20600 pg/mL
  Granzyme A secretion, CD8 T cells, at 0.001 µM: 25200 pg/mL
  Granzyme A secretion, CD8 T cells, at 0.01 µM: 28100 pg/mL
  Granzyme A secretion, CD8 T cells, at 0.1 µM: 29300 pg/mL
  Granzyme A secretion, CD8 T cells, at 1 µM: 31000 pg/mL
  Granzyme A secretion, CD8 T cells, at 10 µM: 31500 pg/mL
  Granzyme A secretion, CD8 T cells, at 100 µM: 29900 pg/mL
  Granzyme B secretion, CD8 T cells, at 0 µM: 77700 pg/mL
  Granzyme B secretion, CD8 T cells, at 0.0001 µM: 68900 pg/mL
  Granzyme B secretion, CD8 T cells, at 0.001 µM: 70600 pg/mL
  Granzyme B secretion, CD8 T cells, at 0.01 µM: 71000 pg/mL
  Granzyme B secretion, CD8 T cells, at 0.1 µM: 79300 pg/mL
  Granzyme B secretion, CD8 T cells, at 1 µM: 112000 pg/mL
  Granzyme B secretion, CD8 T cells, at 10 µM: 125000 pg/mL
  Granzyme B secretion, CD8 T cells, at 100 µM: 106000 pg/mL
  IFNγ secretion, CD8 T cells, at 0 µM: 122000 pg/mL
  IFNγ secretion, CD8 T cells, at 0.0001 µM: 90100 pg/mL
  IFNγ secretion, CD8 T cells, at 0.001 µM: 125000 pg/mL
  IFNγ secretion, CD8 T cells, at 0.01 µM: 127000 pg/mL
  IFNγ secretion, CD8 T cells, at 0.1 µM: 130000 pg/mL
  IFNγ secretion, CD8 T cells, at 1 µM: 147000 pg/mL
  IFNγ secretion, CD8 T cells, at 10 µM: 154000 pg/mL
  IFNγ secretion, CD8 T cells, at 100 µM: 141000 pg/mL
  IL-1β secretion, LPS treated monocytes, at 0 µM: 6240 pg/mL
  IL-1β secretion, LPS treated monocytes, at 0 µM (LPS only): 6880 pg/mL
  IL-1β secretion, LPS treated monocytes, at 0.0001 µM: 5890 pg/mL
  IL-1β secretion, LPS treated monocytes, at 0.001 µM: 5390 pg/mL
  IL-1β secretion, LPS treated monocytes, at 0.01 µM: 6020 pg/mL
  IL-1β secretion, LPS treated monocytes, at 0.1 µM: 5240 pg/mL
  IL-1β secretion, LPS treated monocytes, at 1 µM: 5680 pg/mL
  IL-1β secretion, LPS treated monocytes, at 10 µM: 7120 pg/mL
  IL-1β secretion, LPS treated monocytes, at 100 µM: 8780 pg/mL
  IL-9 secretion, CD8 T cells, at 0 µM: 1350 pg/mL
  IL-9 secretion, CD8 T cells, at 0.0001 µM: 1010 pg/mL
  IL-9 secretion, CD8 T cells, at 0.001 µM: 1320 pg/mL
  IL-9 secretion, CD8 T cells, at 0.01 µM: 1390 pg/mL
  IL-9 secretion, CD8 T cells, at 0.1 µM: 1450 pg/mL
  IL-9 secretion, CD8 T cells, at 1 µM: 1590 pg/mL
  IL-9 secretion, CD8 T cells, at 10 µM: 2050 pg/mL
  IL-9 secretion, CD8 T cells, at 100 µM: 1960 pg/mL
